Laboratory results from patent publication US20250304621A1, “POLYPEPTIDE FOR SPECIFICALLY BLOCKING BINDING OF ACVR1C TO GREM1 AND USE THEREOF” (The Seventh Affiliated Hospital, Sun Yat-Sen University, priority 2024, published 2025).
Entries after “also recorded” stand apart in the source; their conditions may differ.

Columns and labels:
[1] = molecular target: T1, binding of GREM1 to ACVR1C (Homo sapiens, UniProt O60565); assay: Pull-down experiment: Fc-tagged ACVR1C-ECD and his-tagged full-length GREM1 with ACVR1C peptide; conditions: purified Fc-tagged ACVR1C-ECD (AA 1-113) and his-tagged full-length GREM1; FIG. 11b
T1 construct: his-tagged full-length GREM1 were purified; His; made in house
T1 sequence (O60565 25-184): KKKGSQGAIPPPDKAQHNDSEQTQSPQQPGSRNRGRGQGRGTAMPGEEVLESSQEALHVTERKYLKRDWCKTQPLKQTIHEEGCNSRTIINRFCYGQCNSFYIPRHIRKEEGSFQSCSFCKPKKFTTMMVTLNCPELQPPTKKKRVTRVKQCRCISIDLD
Procedure: The Fc-tagged ACVR1C extracellular domain (ACVR1C-ECD, AA 1-113) and his-tagged full-length GREM1 were purified, and ACVR1C peptide (with an amino acid sequence of TECCFTDFCNNITLHLPTA, SEQ ID NO: 7) which blocked the binding of ACVR1C to GREM1 ligand thereof was synthesized (FIG. 11a). The Pull-down experiment was performed.

[2] = tested on: HCT116-luc cells (colorectal liver metastasis); assay: Colorectal liver metastasis model: HCT116-luc cells injected through the spleen, live bioluminescence imaging; type: in vivo; conditions: NOG mice, PLV-GREM1 HCT116-luc cells via spleen, 10 mg/kg by tail vein once every 2 days
Procedure: Grouping: a total of 18 6-week-old NOG mice were taken and randomized into 3 groups 5 days after adaptive feeding: control group (PLV), GREM1 overexpression group (PLV-GREM1) and ACVR1C polypeptide treatment group (PLV-GREM1+ACVR1C peptide), 6/group.
Modeling: HCT116-luc cell suspensions were prepared with cell densities adjusted to 1×10^7 cells/mL. The mice to be treated were taken out and anesthetized by intraperitoneal injection of 2% sodium pentobarbital at a dose of 45 μL/20 g. After about 5 minutes, the mice began to enter a quiet state. White gauze was spread on a mouse board, the mice were placed in left lying position, the abdominal hair of the mice was shaved, and the abdominal side was disinfected from the neck to the groin with alcohol cotton pads. The skin was cut open 1-2 cm below the lower edge of the left costal arch to expose the abdominal wall muscles. The abdominal wall muscles were pulled with pointed forceps to avoid the spleen in the abdominal cavity. The abdominal wall muscles were cut open to expose the internal organs. The pancreas was gently pulled with circular forceps, and the spleen was pulled out. […]

GREM1 = molecular target: T2, GREM1 (Homo sapiens (Human), UniProt O60565 25-184, limits assumed); assay: co-IP in HCT116 cells
T2 construct: also called Gremlin1
T2 sequence: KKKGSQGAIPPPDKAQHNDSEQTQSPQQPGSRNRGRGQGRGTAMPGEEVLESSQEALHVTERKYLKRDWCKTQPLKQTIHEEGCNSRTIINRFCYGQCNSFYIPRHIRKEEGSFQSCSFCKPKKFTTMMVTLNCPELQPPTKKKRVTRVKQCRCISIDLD
Text: To further describe the binding sites between GREM1 and ACVR1C, a truncated GREM1 and ACVR1C extracellular domain (ACVR1C-ECD) is constructed.

Row | Molecule | inhibition of the binding of GREM1 to ACVR1C (pull-down) [1] | inhibition of liver metastasis of colorectal cancer cells (bioluminescence imaging) ([2]; FIG. 12) | inhibition of liver metastasis of colorectal cancer cells (bioluminescence imaging) ([2]; FIG. 12, listed as polypeptide) | binding result (GREM1)
1 | TECCFTDFCNNITLHLPTA [ACVR1C peptide] | competitively inhibited the binding of GREM1 to ACVR1C; also recorded: can interfere or block the binding of GREM1 to ACVR1C | significantly lower than that in a control group | significantly inhibits liver metastasis of colorectal cancer cells; also recorded: significantly inhibit the colorectal cancer metastasis | 
2 | ELSPGLKCVCLLCDSSNFTCQTEGACWASVMLTNGKEQVIKSCVSLP (receptor) [truncated ACVR1C-ECD lacking amino acids 68-113 (A4)] |  |  |  | no binding
